Laboratory results: PMC3931819

Experiments:
[1] = molecular target: 6X(His)-tagged P-domain of the VP1 capsid protein of norovirus Norwalk strain (GI.1 genotype), with the CNGRC cysteine-rich domain (Norwalk virus (GI.1 genotype)); test: cross-linking; 5 ug protein in HEPES 20 mM pH 7, NaCl 100 mM, MgCl2 10 mM with 0%, 0.5% or 1% glutaraldehyde, 5 min at 37°C; samples with or without boiling resolved on 10% SDS-PAGE
[2] = molecular target: 6X(His)-tagged P-domain of the VP1 capsid protein of norovirus VA387 (GII.4 genotype), with the cysteine-rich peptide … (norovirus VA387 (GII.4 genotype)); test: as above

Substance | stoichiometry N [1] | stoichiometry N [2]
6X(His)-tagged P-domain of the VP1 capsid protein of norovirus Norwalk strain (GI.1 genotype), with the CNGRC cysteine-rich domain (domain or fragment) | > 2 | –
6X(His)-tagged P-domain of the VP1 capsid protein of norovirus VA387 (GII.4 genotype), with the cysteine-rich peptide … (domain or fragment) | – | > 2
